Assay results as given in the nanobody polyreactivity screen of Harvey et al. (2022).

Experiment: yeast display, Sf9 membrane polyspecificity reagent, FACS + sequencing; frameworks hold sequencing errors
Method in brief: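 Nanobodies came from a synthetic yeast display library in Saccharomyces cerevisiae BJ5465, induced with galactose for 36–48 hours and stained for 1 hour at 4 °C with 10% biotinylated, detergent-solubilized Sf9 membrane reagent. Cells were enriched on streptavidin microbeads and then FACS-sorted, with low and high (top ~1%) gates set on anti-HA fluorescence for expression and streptavidin fluorescence for reagent binding. Each polyreactivity label reflects the gate a clone came from. Genes were amplified by colony PCR, sequenced by MiSeq 2 × 250 and filtered by CDR length.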

| Sequence | polyreactivity (PSR sort gate) |
| --- | --- |
| QVQIVESGGGLVQAGGSLRLSCAASGRTFTYYAMGWYRQAPGKERELVARIRSGGSTYYADSVKGRFTISRDNEKNTVYLQMNSLKPEDTAVYYCNADRRSAGLYNYWGQGTQVTVSS | low polyreactivity |
| QVQLVESGGGLVQAGGSLRLSSAATGRTFASNAMGWYRQAPGKERELVAAIRYRGDRTSYADSVKGRFTISRDNAKNTVYLQMNSLKPEDTAVYYCAAYYNSHGLDYWGQGTQVNVSS | low polyreactivity |
| QVQLVESGGCLVQAGGSLRLSCAASGSTLSYYAMGWYRQAPGKERELVAAINKSVTRTYYADSVKGRFTISRDNAKNTVYLQMNSLKPEDTAVYYCAASVPYYNGYYYNAYEYWGQGTQVTVSS | high polyreactivity |
| QVQLVESGGGLVQAGGSLRLSCAASGFIFNAYAMGWYRQAPGKERELVAAITFRTTSTYYADSVKGRFTISRDNAKNTVYLQMNSLKPEDTAVYYCAALWIYSGWRYDYWGQGTQVTVSS | high polyreactivity |
| QVQLVESGGGLVQAGGSLRLTCAASGSIFYWYAMGWYRQAPGKERELVAAISSSGSTNYADSVKGRFTISRDNAKNTVYLQMNSLKPEDTAVYYCGAYRTGYNGWGYGYWGQGTQVTVSS | high polyreactivity |
| QVQLVESGGCLVQARGTLRLSCASSGRTIYLYAMPWYRQAPAKERELVAAITKSGGSTYYADSVKGRFTISRDIAMNTVYVQMNSLKPQDTAFYYCYKDLSSTNLDYWGQGTQFTVSS | low polyreactivity |
| QVQLVESGGGLVQAGGSLRLSCAASGIIFTKYAMGWYRQAPGTERELVAAITSGGRTNYADSVKGRFTISRDNAKNTDYLQMNSLKPEDTAVYYCAARYPSRDLLRRYKYWGQGTQVTVSS | high polyreactivity |
| QVQLVESGGGLVQAGGSLRLSCAASGRILDKYAMGWYRPAPGKERELVARIRFSGGDTYADSVKGRFTISRDNAKNTVYLQMNSLKPEDTAVYYCNKDRRNRWDAFDYWGQGTQVTVSS | low polyreactivity |
| QVQLVESGGGLVQAGGSLRLSCAASGRTFGWYSMGWYRQAPGKERELVAAINNSVDITYYSDSVKGRFTISRDNAKNSVYLQMNSLKPEDTAVYYCNRDARSGFVTIYATDYDYWGQGTQVTVSS | low polyreactivity |
| QVQLVESGGGLVQAGGSLRLSCAASGSTFWIYAMGWYRQAPGKERELVAAISWSTGRTYYADSVKGRFTISRDNAKNTVYLQMNSLKPEDTAVYYCNAGPQHNTLKLFYYWGQGTQVTVSS | low polyreactivity |
| QVQLVESVGGLVQAGGSLRLSCAASGRIFGTNAMGWYRQAPGKERELVADITSGGSTNYADSVKGRFTISRDNAKNTVYLQMNSLKPEDTAVYYCAADVIGDLRWYRDEYWGQGTQVTVSS | low polyreactivity |
| QDQLLESGAGLVQAGGSLRLSCAASGRIFDYNVMGWYRQAPGKERELVADITSSGGSTYYADSVKGRFTISRDNAKNTVYLQMNSLKPEDTAVYYCYISYFTIYDDFYYWGQGTQVTVSS | low polyreactivity |
| QVQLVESGGGLVQAGGSLRLSCAASGSIFFFYALGWYRQAPGNERELVAAISKSPSSTYYADSVKGRFTISRDNAKKTVYVQMNSLKPEDTAVYYCNTGYSGIQYYYWGQGTQVTVSS | low polyreactivity |
| QVQLVESGGGLVQAGGSLRLSCAASGSIFGAIAMGWYRQAPGKERELVPAITSGGSTNYADSVKGRFTISRDNAKNTFYLQMNSLKPEDTAVYYCAARRRYAKFRYDYWGQGTQVTVSS | high polyreactivity |
| QVHLVESGGGLVQAGGSLRLSCAASGIIFHYYAMGWYRQAPGKERALVATMTSGGSTYYADSVKGRFTISRDNAKNTVYLQMNSLKPEDSAVYYCAATYGGSVFEYDYWGQGTQVTVSS | low polyreactivity |
| QVQLVESGGGLVQAGGSLRLSCAASGSIFVYNAMGWYRQAPVKERELVAVITLRSGSTNYADSVKGRFTISRDNEKNTVYLQMNSLKPEDTAVYYCAADDTYHDYQRDTDDDYWGQGTQVTVSS | low polyreactivity |
| QVQLVESGGGLVQAGGSLRLSCAASGFIFSNYAMGWYRQAPGKERELVAAISWSGGNTYYADSVKGRFTISRDNAKNTFYLQMNSLKPEDTAVYYCNRVKAYYRWFLPRYQYNYWGQGTQVTVSS | high polyreactivity |
| QVQLVESGGGLVQAGGSLRLSCAASGITFLKNAMGWYRQAPGKESELVAAISSSGGSTYYADSVKGRFTISRDNAKNTVYLQMNSLKPEDTAVYYCAARIYWYTPGRRGYTYDYWGQGTQVTVSS | high polyreactivity |
| QVQLVESGGGLVHAGGSLRLSCAASGRIFHFNAMGWYRPAPGIERELVATITKRGGRTYYADSVKGRFTISRDNAKNTVYLQMNSLKPEDTAVYYCNADQSRYSAVSGYDYWGQGTQVTVSS | high polyreactivity |
| QVQLVESGGGLVQAGGSLRLSCAASGLTFQYYAMGWYRQAPGKEREFVAAITRRGGNTYYADSVKGRFTISRDNAKNTVYLQMNSLKPEDTAVYYCAARYLQGRYDYWGQGTQVTVSS | high polyreactivity |
| QVQLVESGGGLVQAGGSLRLSCAASGIIFEYYAMGWYRQAPGKERELVAAITWNGGRTYYADSVKGRFTISRDNAKNTVYLQMNSLKPEDTAVYYCAARKPRSGGPFDYWGQGTQVTVSS | high polyreactivity |
